Consider 1 substance from patent US20230331811A1, “IMMOBILIZED SELF-ASSEMBLED PROTEIN MULTIMERS” (CCOA THERAPEUTICS INC., priority 2020, published 2023).

This assay has as its target T1, fibrinogen (Homo sapiens, UniProt P02671+P02675+P02679).
T1 sequence (P02671 20-629 limits assumed): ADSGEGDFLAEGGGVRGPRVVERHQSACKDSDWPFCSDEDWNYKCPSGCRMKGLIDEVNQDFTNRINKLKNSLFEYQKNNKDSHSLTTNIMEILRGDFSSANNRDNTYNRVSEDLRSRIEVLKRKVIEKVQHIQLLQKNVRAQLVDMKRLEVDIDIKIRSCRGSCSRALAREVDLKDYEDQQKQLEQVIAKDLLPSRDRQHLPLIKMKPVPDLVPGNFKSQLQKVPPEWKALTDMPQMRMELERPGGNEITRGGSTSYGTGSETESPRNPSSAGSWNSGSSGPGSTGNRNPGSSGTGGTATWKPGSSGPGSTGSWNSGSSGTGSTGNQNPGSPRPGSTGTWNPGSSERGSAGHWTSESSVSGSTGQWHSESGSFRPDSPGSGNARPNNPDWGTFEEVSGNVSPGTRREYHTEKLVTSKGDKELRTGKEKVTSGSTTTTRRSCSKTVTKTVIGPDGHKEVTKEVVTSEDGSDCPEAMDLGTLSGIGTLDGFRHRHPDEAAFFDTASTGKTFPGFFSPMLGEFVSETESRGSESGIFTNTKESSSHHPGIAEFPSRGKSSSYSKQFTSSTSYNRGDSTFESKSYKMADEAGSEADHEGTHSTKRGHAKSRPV
T1 sequence (P02675 31-491): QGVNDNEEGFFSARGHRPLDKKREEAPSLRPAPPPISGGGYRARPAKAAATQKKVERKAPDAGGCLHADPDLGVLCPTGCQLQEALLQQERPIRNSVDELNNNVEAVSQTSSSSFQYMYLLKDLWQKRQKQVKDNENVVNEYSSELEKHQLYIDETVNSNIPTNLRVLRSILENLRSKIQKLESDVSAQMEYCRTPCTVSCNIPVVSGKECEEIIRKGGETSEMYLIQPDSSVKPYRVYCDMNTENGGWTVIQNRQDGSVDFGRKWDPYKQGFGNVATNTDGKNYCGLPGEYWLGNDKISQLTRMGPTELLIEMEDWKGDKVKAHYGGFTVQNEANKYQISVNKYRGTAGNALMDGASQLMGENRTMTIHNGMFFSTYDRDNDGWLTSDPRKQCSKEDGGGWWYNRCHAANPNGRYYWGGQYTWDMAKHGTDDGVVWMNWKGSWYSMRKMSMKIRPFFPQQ
T1 sequence (P02679 27-453): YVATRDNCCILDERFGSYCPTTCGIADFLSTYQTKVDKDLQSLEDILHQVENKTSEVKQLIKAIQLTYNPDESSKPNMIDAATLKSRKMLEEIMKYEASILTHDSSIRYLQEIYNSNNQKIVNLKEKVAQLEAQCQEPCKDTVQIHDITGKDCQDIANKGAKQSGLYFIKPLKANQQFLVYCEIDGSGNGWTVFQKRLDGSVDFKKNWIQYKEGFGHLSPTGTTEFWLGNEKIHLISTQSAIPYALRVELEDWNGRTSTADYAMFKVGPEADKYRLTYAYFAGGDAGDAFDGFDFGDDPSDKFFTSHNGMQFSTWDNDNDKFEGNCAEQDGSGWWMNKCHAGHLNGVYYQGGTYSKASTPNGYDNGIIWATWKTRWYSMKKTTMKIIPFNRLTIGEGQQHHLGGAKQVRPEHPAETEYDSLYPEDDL
The assay can be described thus: Fibrinogen ELISA assay. Type of assay: binding. The following applies: sandwich ELISA. As for the experimental part: Fibrinogen ELISA Assay. To ensure similar immobilization levels of recombinant human ectodomain aIIbβ3 between the ELISA plate and integrin coupled magnetic beads, the wells of a 96-well micro plate (Nunc MaxiSorp) were incubated with the same aIIbβ3 concentration per surface area as during the preparation of the magnetic beads, 6.6×10^4 μg·mL^−1·c^−2. Each well was coated with aIIbβ3 or control proteins (BSA and β3−/− platelet lysate) by incubation of 6 μg/μL protein in binding buffer (TRIS buffered saline with 0.05% TWEEN-20 and 1 mM each of MgCl2, MnCl2 and CaCl2)) at 4° C. overnight. Incubation of 3% skim milk (ED Millipore) and 2% TWEEN-20 for 1 hour at 37° C. was used for blocking. The concentration of aIIbβ3 per surface area of bead used when coating SAM coated beads is 6.6×10^4 μg·mL^−1·cm^−2, therefore the wells of 96 well plates used were coated with the same density EDC/NHS quenching achieved by increase pH to 8.6. Bead concentration for synthesis: 6×10^9 beads·mL^−1; Integrin-bead reaction concentration=250 μg·mL^−1; Integrin Used=6.6×10^4 μg·mL^−1·cm^−2; Well Surface Area (50 μL)=0.93 cm^2; Concentration/wee for ELISA=6×10^4 μg·mL^−1 (6 μL/well in 50 μL total volume); Stock [αIIbβ3]=5×10^5 μg·mL^−1.
Fibrinogen binding. […] The OPD peroxidase reaction was stopped after 1 hour with 2 M H2SO4 and the absorbance was read at 492 nm. […]

For “integrin: Recombinant human ectodomain αIIbβ3 immobilized on 96-well ELISA plate at the same density as on the beads”, the CLOD (fibrinogen detection) came to 0.54 ± 0.07 µM. Under “integrin on plate surface, blocking step, HRP labelled detection antibody”, this substance came in with a Kd of 2200 ± 400 nM.

For orientation: Kd means the free concentration of one partner at which half of the binding sites on the other are occupied at equilibrium, for simple one-to-one binding. Higher therefore signals weaker binding.
